Data: paper PMC7939549, “LAP2alpha maintains a mobile and low assembly state of A-type lamins in the nuclear interior” (eLife, 2021)

Molecular target: T1, lamin A/C (endogenous, mEos3.2-lamin A/C WT mouse dermal fibroblasts) (mouse (endogenous in mouse dermal …, UniProt P48678 1-647))
T1 construct: lamins A and C, both products of the mouse Lmna gene, precipitated together by lamin A/C antibodies; WT clone #21 expresses mEos3.2-tagged lamin A/C (mEos3.2 in frame before the first codon, N-terminal) from 1 allele and untagged lamin A/C from 3 alleles; the precipitated pool holds tagged and untagged lamins A and C; also called lamins A and C; A-type lamins; source: endogenous, mEos3.2-Lmna WT …
T1 sequence (looked up): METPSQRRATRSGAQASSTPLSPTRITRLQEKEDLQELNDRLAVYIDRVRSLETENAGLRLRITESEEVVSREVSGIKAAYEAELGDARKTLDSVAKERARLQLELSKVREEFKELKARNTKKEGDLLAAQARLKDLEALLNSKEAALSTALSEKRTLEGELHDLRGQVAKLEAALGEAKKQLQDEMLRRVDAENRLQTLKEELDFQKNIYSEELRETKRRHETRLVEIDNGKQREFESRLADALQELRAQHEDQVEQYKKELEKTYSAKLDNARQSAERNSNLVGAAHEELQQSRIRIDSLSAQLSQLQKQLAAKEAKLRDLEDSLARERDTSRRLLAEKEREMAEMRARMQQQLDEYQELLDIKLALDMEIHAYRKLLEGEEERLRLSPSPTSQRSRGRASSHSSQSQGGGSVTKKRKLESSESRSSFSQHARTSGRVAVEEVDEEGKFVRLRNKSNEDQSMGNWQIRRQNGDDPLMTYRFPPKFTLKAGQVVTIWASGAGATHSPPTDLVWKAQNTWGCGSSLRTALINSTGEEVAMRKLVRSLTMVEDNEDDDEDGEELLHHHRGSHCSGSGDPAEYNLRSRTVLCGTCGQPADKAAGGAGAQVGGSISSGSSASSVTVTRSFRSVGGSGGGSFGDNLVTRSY
Experiment: not stated; our unpublished data; ratio of mEos3.2-lamin A and LAP2α in the complex

stoichiometry N: 1
B1: LAP2α (endogenous, mouse dermal fibroblasts) (natural protein, UniProt Q61033 1-693, looked up)
chain: MPEFLEDPSVLTKDKLKSELVANNVTLPAGEQRKDVYVQLYLQHLTARNRPPLAAGANSKGPPDFSSDEEREPTPVLGSGASVGRGRGAVGRKATKKTDKPRLEDKDDLDVTELSNEELLDQLVRYGVNPGPIVGTTRKLYEKKLLKLREQGTESRSSTPLPTVSSSAENTRQNGSNDSDRYSDNDEGKKKEHKKVKSARDCVPFSELASTPSGAFFQGISFPEISTRPPLGRTELQAAKKVQTTKRDPPRETCTDTALPGKGQTHKLAPGRSLFIPSESSYDRCVEKSSSPSSQREFAARLVSAAASPSLIRETTTTYSKDIVENICRGGKSRAQPLRAEEPGVSDQSVFSSEREVLQESERSQVISPPLAQAIRDYVNSLLVQGGVGSLPGTSDSVPTLDVENICKRLSQSSYQDSESLSPPRKVPRLSEKPARGGDSGSCVAFQNTPGSEHRSSFAKSVVSHSLTTLGVEVSKPPPQHDKIEASEPSFPLHESILKVVEEEWQQIDRQLPSVACRYPVSSIEAARILSVPKVDDEILGFISEATPRAATQASSTESCDKHLDLALCRSYEAAASALQIAAHTAFVAKSLQADISQAAQIINSDPSDAQQALRILNRTYDAASYLCDAAFDEVRMSACAMGSSTMGRRYLWLKDCKISPASKNKLTVAPFKGGTLFGGEVHKVIKKRGNKQ
notes: lamin-associated polypeptide 2 alpha (LAP2α), mouse, endogenous, detected with antibody 1H11; also called lamin-associated polypeptide 2 alpha; source: endogenous, mEos3.2-Lmna WT mouse dermal fibroblasts, soluble cell extract
